Measured values: PMC3283998 (The Journal of Cell Biology, 2012)
Where no end group is shown, it is not given here.

T1: Bub1(1–150) (human, UniProt O43683 1-150)
T1 sequence (looked up): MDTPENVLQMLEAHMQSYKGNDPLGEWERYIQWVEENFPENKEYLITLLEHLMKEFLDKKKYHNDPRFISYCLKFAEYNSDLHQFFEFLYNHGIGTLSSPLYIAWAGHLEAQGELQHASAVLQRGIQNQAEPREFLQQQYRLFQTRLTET


Key:
[1] = target: BubR1(1–204) (human, UniProt O60566 1-204); assay: fluorescence polarisation
[2] = target: T1, Bub1(1–150); assay: fluorescence polarisation

BubR1(1–204), sequence (O60566 1-204): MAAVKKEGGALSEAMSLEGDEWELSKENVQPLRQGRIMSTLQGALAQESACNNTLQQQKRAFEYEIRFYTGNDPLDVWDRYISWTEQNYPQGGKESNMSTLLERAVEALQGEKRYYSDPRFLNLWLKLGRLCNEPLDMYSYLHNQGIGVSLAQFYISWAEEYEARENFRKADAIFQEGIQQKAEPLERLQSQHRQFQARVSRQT

| Binder | Kd [1] [µM] | Kd [2] [µM] |
| --- | --- | --- |
| ENKIDFNDFIKRLKTGK (peptide, UniProt Q8NG31-2 210-226, looked up, also: 5-FAM label, position not given here) [5-FAM–labeled synthetic peptide Knl1(210–226)] | 0.45 | – |
| STKIDTTSFLANLKLHT (peptide, UniProt Q8NG31-2 174-190, looked up, also: fluorescein (5-FAM) label, position not given here) [Fluorescein (5-FAM)-labeled Knl1(174–190) peptide] | – | ~35 |
